Source: PMC9106695, “The use of high-affinity polyhistidine binders as masking probes for the selection of an NDM-1 specific aptamer”

Tests used:
[1] = test system: hexa-HIS peptide (synthetic); assay: MST; conditions: 20 mM Tris-HCl pH 7.4, 140 mM NaCl, 5 mM MgCl2, 1 mM CaCl2, 1 mM KCl; FLAA/MST with 0.1% BSA and 0.05% Tween 20 (FLAA at RT); SPR without BSA, 0.005% Tween 20 …
[2] = target: T1, HIS-NDM-1 (New Delhi metallo-beta-lactamase 1) (E. coli, UniProt C7C422 29-270); assay: FLAA; signal exceeds initial library; 20 mM Tris-HCl pH 7.4, 140 mM NaCl, 5 mM MgCl2, 1 mM CaCl2, 1 mM KCl; FLAA/MST with 0.1% BSA and 0.05% Tween 20 (FLAA at RT); SPR without BSA, 0.005% Tween 20; conditions: protein: commercial; tags: N-terminal His6
[3] = target: T1, HIS-NDM-1 (New Delhi …); assay: FLAA; signal exceeds initial library; not seen in SPR; 20 mM Tris-HCl pH 7.4, 140 mM NaCl, 5 mM MgCl2, 1 mM CaCl2, 1 mM KCl; FLAA/MST with 0.1% BSA and 0.05% Tween 20 (FLAA at RT); SPR without BSA, 0.005% Tween 20; conditions: protein: commercial; tags: N-terminal His6
[4] = target: T2, mPD1-HIS (mouse Programmed cell Death protein 1) (mouse, UniProt Q02242 25-169); assay: SPR; protein immobilized, 1 uM aptamer; 20 mM Tris-HCl pH 7.4, 140 mM NaCl, 5 mM MgCl2, 1 mM CaCl2, 1 mM KCl; FLAA/MST with 0.1% BSA and 0.05% Tween 20 (FLAA at RT); SPR without BSA, 0.005% Tween 20; conditions: protein: commercial; tags: C-terminal HIS
[5] = target: T1, HIS-NDM-1 (New Delhi …); assay: SPR; aptamer immobilized; 20 mM Tris-HCl pH 7.4, 140 mM NaCl, 5 mM MgCl2, 1 mM CaCl2, 1 mM KCl; FLAA/MST with 0.1% BSA and 0.05% Tween 20 (FLAA at RT); SPR without BSA, 0.005% Tween 20; conditions: protein: commercial, tags: N-terminal His6
[6] = target: T2, mPD1-HIS (mouse Programmed cell Death …); assay: as above; conditions: protein: commercial, tags: C-terminal HIS
[7] = target: CFHR1-HIS (Complement factor H-related protein 1) (UniProt Q03591 19-330); assay: as above; conditions: protein: commercial, tags: C-terminal HIS
[8] = target: T1, HIS-NDM-1 (New Delhi …); assay: MST; 20 mM Tris-HCl pH 7.4, 140 mM NaCl, 5 mM MgCl2, 1 mM CaCl2, 1 mM KCl; FLAA/MST with 0.1% BSA and 0.05% Tween 20 (FLAA at RT); SPR without BSA, 0.005% Tween 20; conditions: protein: commercial, tags: N-terminal His6
[9] = target: T1, HIS-NDM-1 (New Delhi …); assay: SPR; aptamer immobilized; text gives upper limit 4.43E-09; 20 mM Tris-HCl pH 7.4, 140 mM NaCl, 5 mM MgCl2, 1 mM CaCl2, 1 mM KCl; FLAA/MST with 0.1% BSA and 0.05% Tween 20 (FLAA at RT); SPR without BSA, 0.005% Tween 20; conditions: protein: commercial; tags: N-terminal His6; label: 5'-BiotinTEG (SPR kinetics); 5'-Cy5 (MST); none (screens)
[10] = target: OXA-23 beta-lactamase (A. baumannii) (Acinetobacter baumannii, UniProt Q9L4P2 18-273); assay: MST; 20 mM Tris pH 7.4, 140 mM NaCl, 5 mM MgCl2, 1 mM CaCl2, 1 mM KCl, 0.1% BSA, 0.05% Tween 20; conditions: tags: N-His6; label: 5'-Cy5
[11] = label: 5'-BiotinTEG (SPR kinetics), 5'-Cy5 (MST), none (screens)
[12] = label: 5'-BiotinTEG (SPR), 5'-Cy5 (MST), none (FLAA)

T2 sequence (Q02242 25-169): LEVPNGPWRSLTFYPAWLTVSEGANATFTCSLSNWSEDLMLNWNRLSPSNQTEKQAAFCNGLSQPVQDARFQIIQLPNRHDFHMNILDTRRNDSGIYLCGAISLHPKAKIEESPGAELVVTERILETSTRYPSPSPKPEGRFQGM
T1 sequence (C7C422 29-270): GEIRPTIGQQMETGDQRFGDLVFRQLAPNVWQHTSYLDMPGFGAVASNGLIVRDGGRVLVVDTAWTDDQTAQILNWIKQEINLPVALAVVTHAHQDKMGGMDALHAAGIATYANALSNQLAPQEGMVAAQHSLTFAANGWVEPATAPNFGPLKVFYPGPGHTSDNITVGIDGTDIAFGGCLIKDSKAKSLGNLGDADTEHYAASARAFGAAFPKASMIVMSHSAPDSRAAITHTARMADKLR
Sequence of CFHR1-HIS (Complement factor H-related protein 1) (Q03591 19-330): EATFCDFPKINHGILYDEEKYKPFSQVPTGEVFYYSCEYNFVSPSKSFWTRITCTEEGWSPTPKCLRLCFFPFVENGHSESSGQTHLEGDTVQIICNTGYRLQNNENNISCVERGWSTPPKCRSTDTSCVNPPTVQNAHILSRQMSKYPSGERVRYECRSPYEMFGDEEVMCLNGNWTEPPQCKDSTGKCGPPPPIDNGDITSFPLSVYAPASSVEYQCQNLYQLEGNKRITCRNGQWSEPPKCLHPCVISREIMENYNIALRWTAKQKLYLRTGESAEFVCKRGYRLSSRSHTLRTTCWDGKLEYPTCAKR
Sequence of OXA-23 beta-lactamase (A. baumannii) (Q9L4P2 18-273): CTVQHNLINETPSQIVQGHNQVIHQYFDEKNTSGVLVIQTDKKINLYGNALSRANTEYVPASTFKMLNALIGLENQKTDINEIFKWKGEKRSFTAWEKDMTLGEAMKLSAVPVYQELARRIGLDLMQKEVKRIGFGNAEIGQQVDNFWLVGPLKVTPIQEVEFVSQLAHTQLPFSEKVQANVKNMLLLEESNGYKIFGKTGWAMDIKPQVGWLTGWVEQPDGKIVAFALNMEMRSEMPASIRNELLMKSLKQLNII

GTATCTGGTGGTCTATGGCGTCATAGGTACCATGGGGGACTGCTCGGGATTGCGGATTCATGGCATAGACGACGAAGAAC [NDM1-H14-01]
Kd [1]: 28.1 nM

B1: NDM1-H14-02 (ssDNA)
DNA: GTATCTGGTGGTCTATGGCCAGTATGGCTGTTCAAGTCTTCAGAGGGTCTGCTCGGGATTGCGCATAGACGACGAAGAAC
binding result [2]: binds

B2: NDM1-H14-25 (ssDNA)
DNA: GTATCTGGTGGTCTATGGCAAACGTTCTGAGTTAGGCTTATTTTTCTCTCTTCCCTTCGCCGCATAGACGACGAAGAAC
binding result [3]: binds | binding result [4]: binds

CGTCATAGGTACCATGGGGGACTGCTCGGGATTGCGGATTCATG (ssDNA) [NDM1-H14-01-FR]
Kd ([5]; label: 5'-BiotinTEG): 5.91 nM | Kd ([6]; label: 5'-BiotinTEG): 0.125 nM | Kd ([7]; label: 5'-BiotinTEG): 0.0286 nM

B3: Con1 (ssDNA)
DNA: GGGAATTCGAGCTCGGTACCGGCTGCTTTGCTGCAGATTTGTGGGTGGGTGGGTGGTGATCTGCAGGCATGCAAGCTTGG
binding result ([8]; label: 5'-Cy5): no binding

B4: NDM1-H14-01 (ssDNA)
DNA: GTATCTGGTGGTCTATGGCGTCATAGGTACCATGGGGGACTGCTCGGGATTGCGGATTCATGGCATAGACGACGAAGAAC
Kd [9]: 4.34 nM | Kd [6, 11]: 0.0986 nM | Kd [7, 11]: 0.0449 nM

B5: NDM1-H14.2_43 (ssDNA)
DNA: GTATCTGGTGGTCTATGGCCGCTATCCGCAATCTGTCTCTTTTCTTTATTCTTTTACTCACCGCATAGACGACGAAGAAC
Kd [5, 12]: 745 nM | binding result [10]: no binding | Kd [8, 12]: 2820 nM
